To fix the notation:
B1: His6-SUMO-tagged SH3 to PDZ domains of Shank2 (R520-D727), WT [not stated (human or rat cDNA cloned)] / synthetic peptide of the complete PDZ ligand of GKAP (last 15 amino acids of GKAP/SAPAP1) [not stated] (parent)
chain 1: RKLYSAVPGRLFVAVKPYQPQVDGEIPLHRGDRVKVLSIGEGGFWEGSARGHIGWFPAECVEEVQCKPRDSQAETRADRSKKLFRHYTVGSYDSFDTSSDCIIEEKTVVLQKKDNEGFGFVLRGAKADTPIEEFTPTPAFPALQYLESVDEGGVAWQAGLRTGDFLIEVNNENVVKVGHRQVVNMIRQGGNHLVLKVVTVTRNLDPDD
chain 2: ADSIEIYIPEAQTRL

In the assay the parent is B1. Nature of the assay: ITC. To be noted: with synthetic peptide of the complete PDZ ligand of GKAP (last 15 amino acids of GKAP/SAPAP1); parent: 1.
For chain 1 V198F, the ratio to parent was found to be 2.6.
The figure for chain 1 N171S is 1.3; for chain 1 S91Y it is 2.8.

The values above are taken from publication PMC11371640, “Structural deficits in key domains of Shank2 lead to alterations in postsynaptic nanoclusters and to a neurodevelopmental disorder in humans” (Molecular Psychiatry, 2022).
